Experimental findings from publication PMC2120351 (The Journal of Cell Biology, 1995) are described below.

Series [1] concerns the molecule itself. Put plainly: far-Western, overlay or dot blot.
For series [2], the target named is T1, recombinant whole p62 (rat nucleoporin p62 expressed in E. coli) (rat, UniProt P17955 1-525).
T1 sequence: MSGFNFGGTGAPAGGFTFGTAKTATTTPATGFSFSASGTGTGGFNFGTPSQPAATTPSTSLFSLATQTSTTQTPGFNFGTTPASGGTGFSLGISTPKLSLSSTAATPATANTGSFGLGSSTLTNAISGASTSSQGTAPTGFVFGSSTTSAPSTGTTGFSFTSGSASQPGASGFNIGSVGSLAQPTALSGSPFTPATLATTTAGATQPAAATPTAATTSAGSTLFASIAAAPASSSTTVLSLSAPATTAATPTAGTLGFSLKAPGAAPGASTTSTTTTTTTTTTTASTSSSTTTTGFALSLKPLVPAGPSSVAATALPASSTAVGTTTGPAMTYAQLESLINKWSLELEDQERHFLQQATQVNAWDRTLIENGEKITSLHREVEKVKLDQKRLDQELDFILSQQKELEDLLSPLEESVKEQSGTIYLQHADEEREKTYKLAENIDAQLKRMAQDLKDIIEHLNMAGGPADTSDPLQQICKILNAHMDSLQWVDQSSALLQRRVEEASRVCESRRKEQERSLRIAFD
The experiment in a line: far-Western, overlay or dot blot.

B1: recombinant p62 rod domain (domain or fragment)
chain: MTYAQLESLINKWSLELEDQERHFLQQATQVNAWDRTLIENGEKITSLHREVEKVKLDQKRLDQELDFILSQQKELEDLLSPLEESVKEQSGTIYLQHADEEREKTYKLAENIDAQLKRMAQDLKDIIEHLNMAGGPADTSDPLQQICKILNAHMDSLQWVDQSSALLQRRVEEASRVCESRRKEQERSLRIAFD
With B1, the binding result in series [1] and in series [2] was “binds” in each case.
